The record followed here is the supplement of paper PMC9170038.

The series concerns MS2 coat protein. Briefly: apparent KD of MS2 coat protein; designed switch direction (-1 OFF switch, 1 ON switch): -1; higher = weaker reporter binding. The method in brief:
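SNAP-549-labelled MS2 coat protein was titrated, doubling from 0.7 or 1.5 nM to 3 µM, over designed RNA switches transcribed on Illumina chips by stalled E. coli RNA polymerase. Runs were done without input, with 200 uM small-molecule ligand, or with an oligonucleotide input. Apparent KD is the per-design median over clusters of curve-fitted normalised fluorescence.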

The mark [1] stands for this setting: Eterna round: R95, input ligand: FMN 200 uM.
Where [2] appears, read: Eterna round: R95, input ligand: microRNA oligo, concentration not stated.
The mark [3] stands for this setting: Eterna round: R95, input ligand: none.
Setting [4] is: input ligand: microRNA oligo, concentration not stated.

Take “AAGAAACAUGAGGAUCACCCAUGUGAGGAUAUGAAAAAGAAAAUAAAAUAAAUAAGAAUCAGAAGGCACAAAGG [Mat - Mod of Hog D5] (puzzle: Exclusion 1)”: the “apparent KD of MS2 coat protein” value came to 0.0406 µM under setting [1], 0.0455 µM under setting [2] and 0.0402 µM under setting [3].
The like results for “AAGAAACAUGAGGAUCACCCAUGUGAGGAUAUGAAGAAGAAAAGAAAAGAAAGAAGAAUCAGAAGGCACAAAGG [salish99-ex1_r3_046] (puzzle: Exclusion 1)” were, in that order, 0.0671 µM, 0.0258 µM and 0.0484 µM.
“AAGAAACAUGAGGAUCACCCAUGUGAGGAUAUGACAAAGAAAAGAAAAGAAAGAAGAGUCAGAAGGCACAAAGG [salish99-ex1_r3_038] (puzzle: Exclusion 1)”: the “apparent KD of MS2 coat protein” value under setting [1] worked out at 0.137 µM, the “apparent KD of MS2 coat protein” value under setting [2] came out at 0.0532 µM and the “apparent KD of MS2 coat protein” value under setting [3] is 0.0577 µM.
For “AAGAAACAUGAGGAUCACCCAUGUGAGGAUAUGAUAAAGAAAAGAAAAGAAAGAAGACUCAGAAGGCACAAAGG [salish99-ex1_r3_041] (puzzle: Exclusion 1)” the same measures were 0.031 µM, 0.0267 µM and 0.0289 µM.
Regarding “AAGAAACAUGAGGAUCACCCAUGUGAGGAUAUGGCCCGCCCGGCGUGAGCUGGUUUUGUCAGAAGGCACAAAGG [salish99_ex1_r4_017] (Eterna round: R97, puzzle: Exclusion 1)”, the “apparent KD of MS2 coat protein” value runs as follows: (input ligand: FMN 200 uM) 0.104 µM; (input ligand: none) 0.0419 µM.
“AAGAAACAUGAGGAUCACCCAUGUGAGGAUAUGGCCCGCCCGGCGUGAGCUGGUUUUGUCAGAAGGCGCAAAGG [salish99_ex1_r4_018] (Eterna round: R97, puzzle: Exclusion 1)”: the “apparent KD of MS2 coat protein” value reads like this: (input ligand: FMN 200 uM) 0.0539 µM; (input ligand: none) 0.0508 µM.
In the case of “AAGAAGGCAGGAUAUACAAAAUAAAAGAAAAGAAAGAAAGAACAUGAGGAUCACCCAUGUAGAAGGGUCAAGAA [Sankhenre Sewadjtu] (Eterna round: R96, puzzle: Exclusion 2)”, the “apparent KD of MS2 coat protein” value is 0.0522 µM (input ligand: FMN 200 uM), 0.0463 µM under setting [4] and 0.0607 µM (input ligand: none).
For “AAGAAGGCCGUAGGAUAUACAGCAAGAACGCGAGUAGAAGGACGAUACAUGAGGAUCACCCAUGUACGUGGGUAGUGCUCGUGC [Soatceri] (Eterna round: R96, puzzle: Exclusion NG 1)” the same measures were 0.026 µM, 0.0109 µM and 0.0218 µM.
In the case of “AAGACACAUGAGGAUCACCCAUGUGAGGAUAUUCGAUGCUGAGCGUAAGCUUAGUAUCGGAGAAGGCACAUAGG [Salishxclusion 8 - Jieux - Exclusion 1] (Eterna round: R97, puzzle: Exclusion 1)”, the “apparent KD of MS2 coat protein” value by setting is: (input ligand: FMN 200 uM) 0.203 µM; (input ligand: none) 0.251 µM.
For “AAGACACAUGAGGAUCACCCAUGUGAGGAUAUUUGAUGCUGAGCGUAAGCUUAGUAUCAGAGAAGGUACAUAGG [Salishxclusion 10 - Jieux - Exclusion 1] (Eterna round: R97, puzzle: Exclusion 1)” the same measures were 0.105 µM and 0.0589 µM.
Consider “AAGACCAGAGGAUAUCAGACGCGGCACAUGAGGAUCACCCAUGUAUUCCCGUCUGCCGACUGAGAAGGUUGGAAAG [Xeusbi] (puzzle: Exclusion 5)”, for which the “apparent KD of MS2 coat protein” value under setting [2] was determined as 0.00941 µM.
On to “AAGAGGUCAGGAUAUACGGAGAGAGGGAGUUGGUUAGGGUAACAUGAGGAUCACCCAUGUAGAAGGGACUAAGA [JR_Exclu2_Sub079] (puzzle: Exclusion 2)”, for which the “apparent KD of MS2 coat protein” value by setting is: under setting [1], 0.0234 µM; under setting [2], 0.0231 µM; under setting [3], 0.0251 µM.
Turning to “AAGCGCGUAGGAUAUACAUGAGGAUCACCCAUGUGAGGAGGGAGUUGGAGGUGUGGAAGUAGAAGGACGGAGUG [JR_Exclu3_Sub079] (puzzle: Exclusion 3)”, the “apparent KD of MS2 coat protein” value under setting [2] was determined as 0.0269 µM.
For the sequence “AAGGACUGAGGAUAUGCGCGGGCAAGAUCCUCAAUCCCAAAACAUGAGGAUCACCCAUGUAGAAGGCAGAAAUA [Tereenrion] (puzzle: Exclusion 2)”, the “apparent KD of MS2 coat protein” value under setting [2] turned out to be 0.0234 µM.
As for “AAGUACCGUCACGAUAGUGAUGGUACAACAAGCAAAUGUACAUGAGGAUCACCCAUGUCCUCUUUUGCUCGUCUUGU [Sensor 3 - 100] (puzzle: Sensor v3, turn-off variant 2)”, the “apparent KD of MS2 coat protein” value is, setting by setting: under setting [1], 0.155 µM; under setting [2], 0.0302 µM.
Consider “AAGUACUACAAGCUUUGGGACAUGAGGAUCACCCAUGUUCGUCUUAUUGAUCUAGGUACGCUGACGUACCUAGAUCU [Mat - Sensor v3 - turn-off var 1 - JL Mod - D8] (puzzle: Sensor v3, turn-off variant 1)”, for which the “apparent KD of MS2 coat protein” value by setting is: under setting [1], 0.0165 µM; under setting [2], 0.0734 µM; under setting [3], 0.0132 µM.
Take “AAGUAUAGAGGAUAUAGUGAGUACUACAUGAGGAUCACCCAUGUUCUUCGUUACGUAUUUCUAGAAGGCUGAUAAA [EX-5 Malc#23] (puzzle: Exclusion 5)”: the “apparent KD of MS2 coat protein” value under setting [2] came out at 0.106 µM.
As for “AAUAAACAUGAGGAUCACCCAUGUGAGGAUAUACAAAUAAAUAAAUAAAUAAAUAAUAGUAGAAGGCACAAUAA [Excls1-II] (puzzle: Exclusion 1)”, the “apparent KD of MS2 coat protein” value runs as follows: under setting [1], 0.0359 µM; under setting [2], 0.0353 µM; under setting [3], 0.044 µM.
As to “AAUAACAAGCAGGUCCUAAACAUGAGGAUCACCCAUGUGCUCGUCUUGUAAAGUACUAUCACGAAAGUGAUAGUACA [Sensor 3, v1 - 60] (puzzle: Sensor v3, turn-off variant 1)”, the “apparent KD of MS2 coat protein” value worked out at 0.0268 µM under setting [1], 0.297 µM under setting [2] and 0.0283 µM under setting [3].
On to “AAUAACAAGCCGAUCCUCCACAUGAGGAUCACCCAUGUGCUCGUCUUGUAAAGUACUAUCACGAAAGUGAUAGUACA (Eterna round: R97, puzzle: Sensor, turn-off variant 1)”, for which the “apparent KD of MS2 coat protein” value amounted to 0.0392 µM (input ligand: FMN 200 uM) and 0.044 µM (input ligand: none).
Consider “AAUAACAAGCUGAUCCUGCACAUGAGGAUCACCCAUGUGCUCGUCUUGUAAAGUACUAUCACGAAAGUGAUAGUACA (Eterna round: R97, puzzle: Sensor, turn-off variant 1)”, for which the “apparent KD of MS2 coat protein” value reads like this: (input ligand: FMN 200 uM) 0.0163 µM; (input ligand: none) 0.0212 µM.
Consider “AAUAACAGAGGAUAUACUAUUUUAUGUGUUUAUUGUUUUGAACAUGAGGAUCACCCAUGUAGAAGGCUGAGUAA [JMF 38] (puzzle: Exclusion 2)”, for which the “apparent KD of MS2 coat protein” value under setting [2] was 0.0275 µM.
As for “AAUAACAGAGGAUAUACUAUUUUAUGUGUUUGUUAUUUUGAACAUGAGGAUCACCCAUGUAGAAGGCUGAAUAA [JMF 22] (puzzle: Exclusion 2)”, the “apparent KD of MS2 coat protein” value under setting [2] is 0.0217 µM.
“AAUAACAGAGGAUAUACUAUUUUAUGUGUUUGUUGUUUUGAACAUGAGGAUCACCCAUGUAGAAGGCUGAAUGA [JMF 69] (puzzle: Exclusion 2)”: the “apparent KD of MS2 coat protein” value under setting [2] came out at 0.0253 µM.
Take “AAUAACAGAGGAUAUACUAUUUUAUGUGUUUGUUGUUUUGAACAUGAGGAUCACCCAUGUAGAAGGCUGAUUAA [JMF 52] (puzzle: Exclusion 2)”: the “apparent KD of MS2 coat protein” value under setting [2] amounted to 0.0343 µM.
Still for that read-out and setting: the result for “AAUAACAGAGGAUAUACUAUUUUAUGUGUUUGUUGUUUUGAACAUGAGGAUCACCCAUGUAGAAGGCUGAUUGA [JMF 80] (puzzle: Exclusion 2)” reads 0.0396 µM.
With “AAUAACUCAGUGAGGAUAUUUGCGGGUGUUUUCGCAAAGAAGGCACAUGAGGAUCACCCAUGUCAGAGGAGCUA [Eternabot (Original) Solution 24] (Eterna round: R97, puzzle: Brourd's mod of Exclusion 4)”, the “apparent KD of MS2 coat protein” value reads like this: (input ligand: FMN 200 uM) 0.214 µM; (input ligand: none) 0.12 µM.
For the sequence “AAUAAGCGAGGAUAUGCGGGCGGGUGCGGCCAGCCGAUGUGACAUGAGGAUCACCCAUGUAGAAGGCGCAAUAA [Excls2-VI] (puzzle: Exclusion 2)”, the “apparent KD of MS2 coat protein” value reads like this: under setting [1], 0.0159 µM; under setting [2], 0.0114 µM; under setting [3], 0.0107 µM.
For the sequence “AAUAAGCUAGGAUAUACAUGAGGAUCACCCAUGUGAGGGCACCGCCGGCGCGGGCCCGGUAGAAGGAGCAAUAA [Exc;s3-IV] (puzzle: Exclusion 3)”, the “apparent KD of MS2 coat protein” value under setting [2] was found to be 0.0161 µM.
For the sequence “AAUAAGUGAGGAUAUACUAAAAUAUGAAUAAAAUAAAUAAAACAUGAGGAUCACCCAUGUAGAAGGCACAAUAA [JMF's Not so obvious solution 5] (puzzle: Exclusion 2)”, the “apparent KD of MS2 coat protein” value came to 0.0226 µM under setting [1], 0.0239 µM under setting [2] and 0.0222 µM under setting [3].
The like results for “AAUAAUAAGGAGGAUAUCGUAACCGAAAGGUUACGAGAAGGCCUAACAUGAGGAUCACCCAUGUUCCUCAAUAA [Mat - Exclusion 6 - Eli Mod - D56] (puzzle: Exclusion 6)” were, in that order, 0.468 µM, 0.186 µM and 0.389 µM.
“AAUAAUAAGGAGGAUAUCGUAUCGGAAACGAUACGAGAAGGUCUAACAUGAGGAUCACCCAUGUUCCUCAAUAA [Fiskers Ex 6 - 1] (puzzle: Exclusion 6)”: the “apparent KD of MS2 coat protein” value under setting [2] was 0.0336 µM.
Take “AAUAAUGCAGGAUAUACAUGAGGAUCACCCAUGUGAAUAAAAUAAAUAAAAUGAUAAAGUAGAAGGGCAAAUAA [JMF's solution 1] (puzzle: Exclusion 3)”: the “apparent KD of MS2 coat protein” value amounted to 0.028 µM under setting [1], 0.0288 µM under setting [2] and 0.0355 µM under setting [3].
The like results for “AAUAGGACAGGAUAUCCGGAGUCGAACAUGAGGAUCACCCAUGUGAUGAGGAUGUUCGCUGGAGAAGGGUCUGGCU [Atisdiis] (puzzle: Exclusion 5)” were, in that order, 0.0839 µM, 0.124 µM and 0.176 µM.
